The assay addresses B lymphocyte surface IgM (mouse (endogenous in spleen cells)). Briefly: cocapping.

B lymphocyte surface IgM (mouse (endogenous in spleen cells)), sequence (P01872 whole entry): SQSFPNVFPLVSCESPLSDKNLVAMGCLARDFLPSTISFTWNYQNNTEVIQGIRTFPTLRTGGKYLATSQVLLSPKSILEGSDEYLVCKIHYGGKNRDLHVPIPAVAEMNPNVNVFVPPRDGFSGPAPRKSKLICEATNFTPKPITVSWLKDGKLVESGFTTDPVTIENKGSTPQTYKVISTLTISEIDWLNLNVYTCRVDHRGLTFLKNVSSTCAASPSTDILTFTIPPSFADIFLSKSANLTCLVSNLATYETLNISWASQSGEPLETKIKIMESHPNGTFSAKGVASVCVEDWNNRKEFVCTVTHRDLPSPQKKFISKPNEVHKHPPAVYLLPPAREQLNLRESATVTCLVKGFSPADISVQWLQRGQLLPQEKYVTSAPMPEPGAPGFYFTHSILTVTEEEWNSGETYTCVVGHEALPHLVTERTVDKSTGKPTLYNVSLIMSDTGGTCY

As to “B lymphocyte Fc IgG receptor (from UniProt P08101 30-330)”, the % of B lymphocytes with capped sIgM that also had capped FcGR (12 experiments) was 86%; the % of FcGR-positive cells with FcGR capped (Table III, experiment B, part 4) came to 62%; the % of FcGR-positive cells with FcGR capped (Table IV, part 4) came to 46%.

For the origin of these results see article PMC2186165.
